First the molecules themselves.
B1: hV0022 control (antibody, V domains shown)
VH: QVQLQQPGTELVKPGSSVNLSCKASGFTFTRYWMHWVKERPGHGLEWIGNINPNNGGTDFNEKFKNKATLTVHKSSTTVFIQLSSLTSEDSAVYYCARGTGTGAMDYWGQGTSVTVSS
VL: DVVMTQTPLSLPVSLGDQASISCRSSQSLVHNNGITYLYWYLQKPGQSPKLLIYRVSNRFSGVPDRFGGSGSGTDFTLKISRVEAEDLGVYFCFQGTHVPRTFGGGTKLEIK
modifications: immunopurified paired helical filament tau, hyperphosphorylated
B2: V0022 control (antibody, V domains shown)
VH: QVQLQQPGTELVKPGSSVNLSCKASGFTFTRYWMHWVKERPGHGLEWIGNINPNNGGTDFNEKFKNKATLTVHKSSTTVFIQLSSLTSEDSAVYYCARGTGTGAMDYWGQGTSVTVSS
VL: DVVMTQTPLSLPVSLGDQASISCRSSQSLVHNNGITYLYWYLQKPGQSPKLLIYRVSNRFSGVPDRFGGSGSGTDFTLKISRVEAEDLGVYFCFQGTHVPRTFGGGTKLEIK
modifications: immunopurified paired helical filament tau, hyperphosphorylated
B3: Ab7 (antibody, V domains shown)
VH: QVQLVQSGAEVKKPGASVKVSCKASGFTFTRYWMHWVRERPGHGLEWIGNINPNNGGTDFNEKFKNRVTMTVHKSISTAYMELSSLRSDDSAVYYCARGTGTGAMDYWGQGTLVTVSS
VL: DVVMTQSPLSLPVTLGQPASISCRSSQSLVHNNGITYLYWYQQRPGQSPRLLIYRVSNRFSGVPDRFSGSGSGTDFTLKISRVEAEDVGVYYCFQGTHVPRTFGQGTKLEIK
modifications: immunopurified paired helical filament tau, hyperphosphorylated
B4: Ab2 (antibody, V domains shown)
VH: QVQLVESGAEVKKPGASVKVSCKASGFTFTRYWMHWVKERPGHGLEWMGNINPNNGGTDFNEKFKNRVTITVHKSASTAYMELSSLRSEDTAVYYCARGTGTGAMDYWGQGTTVTVSS
VL: DVVMTQSPLSLPVTLGQPASISCRSSQSLVHNNGITYLYWYQQRPGQSPRLLIYRVSNRFSGVPDRFSGSGSGTDFTLKISRVEAEDVGVYYCFQGTHVPRTFGQGTKLEIK
modifications: immunopurified paired helical filament tau, hyperphosphorylated
B5: Ab6 (antibody, V domains shown)
VH: QVQLVESGAEVKKPGASVKVSCKASGFTFTRYWMHWVKERPGHGLEWMGNINPNNGGTDFNEKFKNRVTITVHKSASTAYMELSSLRSEDTAVYYCARGTGTGAMDYWGQGTTVTVSS
VL: DIVMTQSPLSLSVTPGQPASISCRSSQSLVHNNGITYLYWYLQKPGQSPQLLIYRVSNRFSGVPDRFSGSGSGTDFTLKISRVEAEDVGVYYCFQGTHVPRTFGQGTKVEIK
modifications: immunopurified paired helical filament tau, hyperphosphorylated
B6: Ab3 (antibody, V domains shown)
VH: EVQLVQSGAEVKKPGSSVKVSCKASGFTFTRYWMHWVKERPGHGLEWIGNINPNNGGTDFNEKFKNRVTMTVHKSITTAYMELSRLTSDDSAVYYCARGTGTGAMDYWGQGTLVSVSS
VL: DVVMTQSPLSLPVTLGQPASISCRSSQSLVHNNGITYLYWYQQRPGQSPRLLIYRVSNRFSGVPDRFSGSGSGTDFTLKISRVEAEDVGVYYCFQGTHVPRTFGQGTKLEIK
modifications: immunopurified paired helical filament tau, hyperphosphorylated
B7: Ab1 (antibody, V domains shown)
VH: QVQLVQSGAEVKKSGASVKVSCKASGFTFTRYWMHWVRQAPGQGLEWIGNINPNNGGTDFNEKFKNRVTLIRDTSTTTVFIQLTSLTSEDSAVYYCARGTGTGAMDYWGQGTLVTVSS
VL: DIVMTQSPLSLSVTPGQPASISCRSSQSLVHNNGITYLYWYLQKPGQSPQLLIYRVSNRFSGVPDRFSGSGSGTDFTLKISRVEAEDVGVYYCFQGTHVPRTFGQGTKVEIK
modifications: immunopurified paired helical filament tau, hyperphosphorylated
B8: Ab8 (antibody, V domains shown)
VH: QVQLVQSGAEVKKSGASVKVSCKASGFTFTRYWMHWVRQAPGQGLEWIGNINPNNGGTDFNEKFKNRVTLIRDTSTTTVFIQLTSLTSEDSAVYYCARGTGTGAMDYWGQGTLVTVSS
VL: DVVMTQSPLSLPVTLGQPASISCRSSQSLVHNNGITYLYWYQQRPGQSPRLLIYRVSNRFSGVPDRFSGSGSGTDFTLKISRVEAEDVGVYYCFQGTHVPRTFGQGTKLEIK
modifications: immunopurified paired helical filament tau, hyperphosphorylated
B9: Ab11 (antibody, V domains shown)
VH: QVQLVQSGAEVKKPGASVKVSCKASGFTFTRYWMHWVKERPGQGLEWMGNINPNNGGTDFNEKFKNRVTMTVHKSTSTVFIQLSSLRSEDTAVYYCARGTGTGAMDYWGQGTSVTVSS
VL: DVVMTQSPLSLPVTLGQPASISCRSSQSLVHNNGITYLYWYQQRPGQSPRLLIYRVSNRFSGVPDRFSGSGSGTDFTLKISRVEAEDVGVYYCFQGTHVPRTFGQGTKLEIK
modifications: immunopurified paired helical filament tau, hyperphosphorylated
B10: Ab9 (antibody, V domains shown)
VH: EVQLVQSGAEVKKPGSSVKVSCKASGFTFTRYWMHWVKERPGHGLEWIGNINPNNGGTDFNEKFKNRVTMTVHKSITTAYMELSRLTSDDSAVYYCARGTGTGAMDYWGQGTLVSVSS
VL: DIVMTQSPLSLSVTPGQPASISCRSSQSLVHNNGITYLYWYLQKPGQSPQLLIYRVSNRFSGVPDRFSGSGSGTDFTLKISRVEAEDVGVYYCFQGTHVPRTFGQGTKVEIK
modifications: immunopurified paired helical filament tau, hyperphosphorylated
B11: Ab10 (antibody, V domains shown)
VH: EVQLVQSGAEVKKPGSSVKVSCKASGFTFTRYWMHWVKERPGHGLEWIGNINPNNGGTDFNEKFKNRVTMTVHKSITTAYMELSRLTSDDSAVYYCARGTGTGAMDYWGQGTLVSVSS
VL: DIVMTQTPLSSPVTLGQPASISCRSSQSLVHNNGITYLYWYQQRPGQPPRLLIYRVSNRFSGVPDRFSGSGAGTDFTLKINRVEAEDVGVYFCFQGTHVPRTFGQGTKLEIK
modifications: immunopurified paired helical filament tau, hyperphosphorylated
B12: Ab4 (antibody, V domains shown)
VH: QVQLVQSGAEVKKPGASVKVSCKASGFTFTRYWMHWVKERPGQGLEWMGNINPNNGGTDFNEKFKNRVTMTVHKSTSTVFIQLSSLRSEDTAVYYCARGTGTGAMDYWGQGTSVTVSS
VL: DIVMTQSPLSLSVTPGQPASISCRSSQSLVHNNGITYLYWYLQKPGQSPQLLIYRVSNRFSGVPDRFSGSGSGTDFTLKISRVEAEDVGVYYCFQGTHVPRTFGQGTKVEIK
modifications: immunopurified paired helical filament tau, hyperphosphorylated
B13: Ab5 (antibody, V domains shown)
VH: QVQLVQSGAEVKKPGASVKVSCKASGFTFTRYWMHWVKERPGQGLEWMGNINPNNGGTDFNEKFKNRVTMTVHKSTSTVFIQLSSLRSEDTAVYYCARGTGTGAMDYWGQGTSVTVSS
VL: DIVMTQTPLSSPVTLGQPASISCRSSQSLVHNNGITYLYWYQQRPGQPPRLLIYRVSNRFSGVPDRFSGSGAGTDFTLKINRVEAEDVGVYFCFQGTHVPRTFGQGTKLEIK
modifications: immunopurified paired helical filament tau, hyperphosphorylated
B14: Ab2 (antibody, V domains shown)
VH: QVQLVESGAEVKKPGASVKVSCKASGFTFTRYWMHWVKERPGHGLEWMGNINPNNGGTDFNEKFKNRVTITVHKSASTAYMELSSLRSEDTAVYYCARGTGTGAMDYWGQGTTVTVSS
VL: DVVMTQSPLSLPVTLGQPASISCRSSQSLVHNNGITYLYWYQQRPGQSPRLLIYRVSNRFSGVPDRFSGSGSGTDFTLKISRVEAEDVGVYYCFQGTHVPRTFGQGTKLEIK
modifications: enriched paired helical filament tau, hyperphosphorylated
B15: Ab1 (antibody, V domains shown)
VH: QVQLVQSGAEVKKSGASVKVSCKASGFTFTRYWMHWVRQAPGQGLEWIGNINPNNGGTDFNEKFKNRVTLIRDTSTTTVFIQLTSLTSEDSAVYYCARGTGTGAMDYWGQGTLVTVSS
VL: DIVMTQSPLSLSVTPGQPASISCRSSQSLVHNNGITYLYWYLQKPGQSPQLLIYRVSNRFSGVPDRFSGSGSGTDFTLKISRVEAEDVGVYYCFQGTHVPRTFGQGTKVEIK
modifications: enriched paired helical filament tau, hyperphosphorylated
B16: Ab3 (antibody, V domains shown)
VH: EVQLVQSGAEVKKPGSSVKVSCKASGFTFTRYWMHWVKERPGHGLEWIGNINPNNGGTDFNEKFKNRVTMTVHKSITTAYMELSRLTSDDSAVYYCARGTGTGAMDYWGQGTLVSVSS
VL: DVVMTQSPLSLPVTLGQPASISCRSSQSLVHNNGITYLYWYQQRPGQSPRLLIYRVSNRFSGVPDRFSGSGSGTDFTLKISRVEAEDVGVYYCFQGTHVPRTFGQGTKLEIK
modifications: enriched paired helical filament tau, hyperphosphorylated
B17: Ab6 (antibody, V domains shown)
VH: QVQLVESGAEVKKPGASVKVSCKASGFTFTRYWMHWVKERPGHGLEWMGNINPNNGGTDFNEKFKNRVTITVHKSASTAYMELSSLRSEDTAVYYCARGTGTGAMDYWGQGTTVTVSS
VL: DIVMTQSPLSLSVTPGQPASISCRSSQSLVHNNGITYLYWYLQKPGQSPQLLIYRVSNRFSGVPDRFSGSGSGTDFTLKISRVEAEDVGVYYCFQGTHVPRTFGQGTKVEIK
modifications: enriched paired helical filament tau, hyperphosphorylated
B18: Ab9 (antibody, V domains shown)
VH: EVQLVQSGAEVKKPGSSVKVSCKASGFTFTRYWMHWVKERPGHGLEWIGNINPNNGGTDFNEKFKNRVTMTVHKSITTAYMELSRLTSDDSAVYYCARGTGTGAMDYWGQGTLVSVSS
VL: DIVMTQSPLSLSVTPGQPASISCRSSQSLVHNNGITYLYWYLQKPGQSPQLLIYRVSNRFSGVPDRFSGSGSGTDFTLKISRVEAEDVGVYYCFQGTHVPRTFGQGTKVEIK
modifications: enriched paired helical filament tau, hyperphosphorylated
B19: Ab11 (antibody, V domains shown)
VH: QVQLVQSGAEVKKPGASVKVSCKASGFTFTRYWMHWVKERPGQGLEWMGNINPNNGGTDFNEKFKNRVTMTVHKSTSTVFIQLSSLRSEDTAVYYCARGTGTGAMDYWGQGTSVTVSS
VL: DVVMTQSPLSLPVTLGQPASISCRSSQSLVHNNGITYLYWYQQRPGQSPRLLIYRVSNRFSGVPDRFSGSGSGTDFTLKISRVEAEDVGVYYCFQGTHVPRTFGQGTKLEIK
modifications: enriched paired helical filament tau, hyperphosphorylated
B20: Ab10 (antibody, V domains shown)
VH: EVQLVQSGAEVKKPGSSVKVSCKASGFTFTRYWMHWVKERPGHGLEWIGNINPNNGGTDFNEKFKNRVTMTVHKSITTAYMELSRLTSDDSAVYYCARGTGTGAMDYWGQGTLVSVSS
VL: DIVMTQTPLSSPVTLGQPASISCRSSQSLVHNNGITYLYWYQQRPGQPPRLLIYRVSNRFSGVPDRFSGSGAGTDFTLKINRVEAEDVGVYFCFQGTHVPRTFGQGTKLEIK
modifications: enriched paired helical filament tau, hyperphosphorylated
B21: Ab7 (antibody, V domains shown)
VH: QVQLVQSGAEVKKPGASVKVSCKASGFTFTRYWMHWVRERPGHGLEWIGNINPNNGGTDFNEKFKNRVTMTVHKSISTAYMELSSLRSDDSAVYYCARGTGTGAMDYWGQGTLVTVSS
VL: DVVMTQSPLSLPVTLGQPASISCRSSQSLVHNNGITYLYWYQQRPGQSPRLLIYRVSNRFSGVPDRFSGSGSGTDFTLKISRVEAEDVGVYYCFQGTHVPRTFGQGTKLEIK
modifications: enriched paired helical filament tau, hyperphosphorylated

Sequence of ePHF (P10636 2-758): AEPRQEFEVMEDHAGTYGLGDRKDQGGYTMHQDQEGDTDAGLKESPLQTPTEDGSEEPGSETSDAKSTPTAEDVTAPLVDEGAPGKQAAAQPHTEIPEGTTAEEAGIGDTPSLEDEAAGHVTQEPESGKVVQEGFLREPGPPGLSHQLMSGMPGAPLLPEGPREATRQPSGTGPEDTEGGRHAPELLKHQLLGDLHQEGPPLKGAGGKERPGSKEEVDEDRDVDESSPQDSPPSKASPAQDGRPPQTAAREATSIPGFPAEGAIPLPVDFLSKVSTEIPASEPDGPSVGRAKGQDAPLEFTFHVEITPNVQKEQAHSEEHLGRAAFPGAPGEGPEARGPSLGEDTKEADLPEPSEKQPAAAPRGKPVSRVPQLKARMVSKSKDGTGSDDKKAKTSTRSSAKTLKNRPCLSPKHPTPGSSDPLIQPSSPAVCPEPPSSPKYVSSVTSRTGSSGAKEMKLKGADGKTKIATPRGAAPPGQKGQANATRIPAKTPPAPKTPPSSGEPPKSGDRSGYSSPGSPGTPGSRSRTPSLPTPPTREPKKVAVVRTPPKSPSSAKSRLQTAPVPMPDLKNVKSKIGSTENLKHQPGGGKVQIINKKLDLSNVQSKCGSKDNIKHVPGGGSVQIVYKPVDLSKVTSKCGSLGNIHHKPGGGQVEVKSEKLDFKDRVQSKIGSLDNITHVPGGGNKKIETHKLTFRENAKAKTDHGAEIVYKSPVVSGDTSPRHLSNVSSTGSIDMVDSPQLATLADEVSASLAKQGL

For one experiment, the target named is iPHF (human, UniProt P10636). Description: SPR. A general note: SPR reads the build-up and loss of mass on a sensor chip optically.
Sequence of iPHF (P10636 2-758): as above
Regarding B1, the Kd (in general, the equilibrium constant for the complex coming apart) came to 16.2 pM.

As for B2, the Kd came to 16.5 pM.

Molecule B3 came in with a Kd of 33.4 pM.

B4 displayed a Kd of 29.3 pM.

B5 displayed a Kd of 39.1 pM.

The molecule B6 registered a Kd of 32.5 pM.

Molecule B7 displayed a Kd of 43.4 pM.

With B8, the Kd is 49.6 pM.

The molecule B9 registered a Kd of 24.9 pM.

The molecule B10 had a Kd of 44 pM.

In turn, B11 gave a Kd of 30.4 pM.

The molecule B12 displayed a Kd of 35.3 pM.

In turn, B13 registered an equilibrium dissociation constant (Kd) of 24.8 pM.

The next experiment has as its target ePHF (human, UniProt P10636). Description: ELISA.
Turning to B14, a half-maximal response (EC50) required 150 pM.

On to B15, for which the EC50 (commonly the midpoint of the concentration-response curve) was found to be 85 pM.

With B16, the EC50 stood at 95 pM.

In turn, B17 registered an EC50 of 160 pM.

B18 showed an EC50 of 100 pM.

Molecule B19 came in with a concentration giving a half-maximal response (EC50) of 160 pM.

Regarding B20, the response was half-maximal at 140 pM (EC50).

The molecule B21 returned an EC50 of 130 pM.

Values taken from patent US20260356924 (published 2026).
